Assay results from paper PMC7082075.
“And” between values parts separate entries of the source, which are not always exact repeats. Equal entries are not always repeated.

Assays:
[1] = biological target: PX domain of SNX5 (SNX5^PX) (UniProt Q9Y5X3); assay: ITC; Fig 2B: CI-MPR (aa21–48) WT or alanine mutants titrated into SNX5^PX; 100 mM Hepes pH 7.5, 300 mM NaCl, 2 mM βME, 25°C; single values of triplicates
[2] = biological target: PX domain of SNX5 (SNX5^PX) (UniProt Q9Y5X3); assay: ITC; S4C Fig: approximately 0.5–1 mM of CI-MPR (aa21–48) WT or loop-deletion peptides titrated into SNX5^PX (50 μM); 100 mM HEPES pH 7.5, 300 mM NaCl, 2 mM βME, 25°C; one set of sites model; single values of triplicates
[3] = biological target: PX domain of SNX5 (SNX5^PX) (UniProt Q9Y5X3); assay: ITC; Fig 1D: approximately 2–3 mM of peptides titrated into SNX5^PX (300 μM); 100 mM HEPES pH 7.5, 300 mM NaCl, 2 mM βME, 25°C; one set of sites model; single values of triplicates
[4] = biological target: PX domain of SNX5 (SNX5^PX) (UniProt Q9Y5X3); assay: ITC; S1B Fig: approximately 2–3 mM of CI-MPR (aa21–48) peptide titrated into approximately 100–300 μM of SNX5^PX, SNX6^PX or SNX32^PX; 100 mM HEPES pH 7.5, 300 mM NaCl, 2 mM βME, 25°C; one set of sites model; single values of triplicates
[5] = biological target: PX domain of SNX32 (SNX32^PX); assay: as above
[6] = biological target: PX domain of SNX6 (SNX6^PX) (UniProt Q9UNH7); assay: as above
[7] = biological target: SNX3-retromer complex (Retromer + SNX3) (UniProt Q96QK1); assay: ITC; approximately 2–3 mM peptide titrated into SNX5^PX (300 μM) or the SNX3-retromer complex (10 μM Retromer + 100 μM SNX3); 100 mM HEPES pH 7.5, 300 mM NaCl, 2 mM βME, 25°C; one set of sites model (Fig 1D, 1E, 2B)
SNX5^PX [8] = biological target: SNX5^PX (UniProt Q9Y5X3); assay: as above
SNX5^PX [9] = biological target: SNX5^PX (UniProt Q9Y5X3); assay: ITC; loop length: approximately 0.5–1 mM peptide titrated into SNX5^PX (50 μM); 100 mM HEPES pH 7.5, 300 mM NaCl, 2 mM βME, 25°C (S4C Fig)
SNX6^PX = SNX6^PX (UniProt Q9UNH7); assay: ITC; approximately 2–3 mM CI-MPR (aa21–48) titrated into approximately 100–300 μM SNX5^PX, SNX6^PX or SNX32^PX; 100 mM HEPES pH 7.5, 300 mM NaCl, 2 mM βME, 25°C (S1B Fig)
SNX5^PX [10] = biological target: SNX5^PX (UniProt Q9Y5X3); assay: as above
SNX32^PX = assay: as above

Sequence of SNX5^PX (Q9Y5X3 20-180): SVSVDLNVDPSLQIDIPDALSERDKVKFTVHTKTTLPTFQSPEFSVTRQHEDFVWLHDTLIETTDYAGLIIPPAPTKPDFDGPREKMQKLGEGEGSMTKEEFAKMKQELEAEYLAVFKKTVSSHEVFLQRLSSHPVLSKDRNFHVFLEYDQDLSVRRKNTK
Sequence of PX domain of SNX6 (SNX6^PX) (Q9UNH7 26-173): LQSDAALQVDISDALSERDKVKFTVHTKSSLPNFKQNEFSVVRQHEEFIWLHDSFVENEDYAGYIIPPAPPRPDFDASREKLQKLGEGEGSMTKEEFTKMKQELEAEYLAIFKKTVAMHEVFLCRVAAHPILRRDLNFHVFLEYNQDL
Sequence of PX domain of SNX5 (SNX5^PX) (Q9Y5X3 25-172): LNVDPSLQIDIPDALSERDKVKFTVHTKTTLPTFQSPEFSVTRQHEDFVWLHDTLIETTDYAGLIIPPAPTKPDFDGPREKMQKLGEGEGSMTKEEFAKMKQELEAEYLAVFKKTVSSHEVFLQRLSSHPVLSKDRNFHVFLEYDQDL

| Kd [1] | Kd [2] | Kd [3] | Kd [4] | Kd [5] | Kd [6] | Kd [7] [µM] | Kd (SNX5^PX [8]) [µM] | Kd (SNX5^PX [9]) [µM] | Kd (SNX6^PX) [µM] | Kd (SNX5^PX [10]) [µM] | Kd (SNX32^PX) [µM] | Substance |
| --- | --- | --- | --- | --- | --- | --- | --- | --- | --- | --- | --- | --- |
| 18 µM and 11 µM and 25 µM | 9 µM and 26 µM and 19 µM | 13 µM and 22 µM and 19 µM | 22 µM and 17 µM and 15 µM | 18 µM and 15 µM and 21 µM | 44 µM and 36 µM and 28 µM |  |  |  |  |  |  | CI-MPR (aa21–48) peptide, wild type |
|  |  |  |  |  |  | > 400 | 18 | 18 | 36 | 18 | 18 | CI-MPR peptide (aa21–48) |
